# Reference: publication PMC4108505 (Journal of molecular biology, 2014)
# B1: PrgI V65A/V67A/L31C labelled with Alexa Fluor 488-C5-maleimide (natural protein)
# chain: MATPWSGYLDDVSAKFDTGVDNLQTQVTEACDKLAAKPSDPALLAAYQSKLSEYNLYRNAQSNTAKAFKDIDAAIIQNFR
# modifications: Alexa Fluor 488-C5-maleimide on the cysteine of L31C
# Experiments:
# Test in all cases: fluorescence polarisation
# SipD^t D320R = target: T1, SipD^t D320R (Salmonella, UniProt Q56026 101-343, D320R)
# T1 sequence: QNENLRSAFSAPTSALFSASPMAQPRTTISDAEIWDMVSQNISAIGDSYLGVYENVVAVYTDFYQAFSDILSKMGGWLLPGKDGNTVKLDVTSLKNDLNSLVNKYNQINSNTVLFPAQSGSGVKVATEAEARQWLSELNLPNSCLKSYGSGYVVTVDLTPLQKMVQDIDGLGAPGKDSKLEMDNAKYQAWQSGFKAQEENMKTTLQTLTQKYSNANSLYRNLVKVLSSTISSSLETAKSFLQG
# SipD^t V323K = target: T2, SipD^t V323K (Salmonella, UniProt Q56026 101-343, V323K)
# T2 sequence: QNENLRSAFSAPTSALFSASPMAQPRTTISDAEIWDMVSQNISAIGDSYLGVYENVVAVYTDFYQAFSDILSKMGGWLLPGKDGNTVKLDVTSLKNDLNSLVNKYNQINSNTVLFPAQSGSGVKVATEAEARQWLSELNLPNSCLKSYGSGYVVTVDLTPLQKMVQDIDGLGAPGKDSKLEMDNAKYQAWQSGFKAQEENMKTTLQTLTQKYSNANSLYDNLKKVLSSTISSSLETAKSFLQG
# [1] = target: T3, SipD^t (truncated form of SipD lacking the N-terminal alpha-helical hairpin, residues 101-343) (Salmonella, UniProt Q56026 101-343)
# T3 sequence: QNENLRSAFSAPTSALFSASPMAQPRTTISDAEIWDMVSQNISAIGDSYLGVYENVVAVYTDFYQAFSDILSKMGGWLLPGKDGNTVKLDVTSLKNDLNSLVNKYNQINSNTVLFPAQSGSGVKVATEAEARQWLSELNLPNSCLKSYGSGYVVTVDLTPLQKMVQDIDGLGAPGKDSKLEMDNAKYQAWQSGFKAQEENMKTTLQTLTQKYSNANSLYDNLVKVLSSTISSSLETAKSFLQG
# SipD^t V157K = target: T4, SipD^t V157K (Salmonella, UniProt Q56026 101-343, V157K)
# T4 sequence: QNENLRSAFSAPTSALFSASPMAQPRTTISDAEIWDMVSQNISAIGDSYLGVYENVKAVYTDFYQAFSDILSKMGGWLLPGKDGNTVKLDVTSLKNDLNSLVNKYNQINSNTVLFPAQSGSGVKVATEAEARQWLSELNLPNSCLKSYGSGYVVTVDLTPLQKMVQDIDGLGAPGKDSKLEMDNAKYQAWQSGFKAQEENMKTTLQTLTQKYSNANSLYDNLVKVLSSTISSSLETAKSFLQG
# SipD^t S313E = target: T5, SipD^t S313E (Salmonella, UniProt Q56026 101-343, S313E)
# T5 sequence: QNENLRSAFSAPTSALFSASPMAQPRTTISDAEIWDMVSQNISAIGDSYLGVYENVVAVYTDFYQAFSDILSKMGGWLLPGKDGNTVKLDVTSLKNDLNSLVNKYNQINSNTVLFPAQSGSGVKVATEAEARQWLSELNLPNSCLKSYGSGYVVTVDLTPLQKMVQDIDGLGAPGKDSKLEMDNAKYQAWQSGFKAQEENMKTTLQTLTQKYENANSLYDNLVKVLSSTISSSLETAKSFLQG
# SipD^t S148E = target: T6, SipD^t S148E (Salmonella, UniProt Q56026 101-343, S148E)
# T6 sequence: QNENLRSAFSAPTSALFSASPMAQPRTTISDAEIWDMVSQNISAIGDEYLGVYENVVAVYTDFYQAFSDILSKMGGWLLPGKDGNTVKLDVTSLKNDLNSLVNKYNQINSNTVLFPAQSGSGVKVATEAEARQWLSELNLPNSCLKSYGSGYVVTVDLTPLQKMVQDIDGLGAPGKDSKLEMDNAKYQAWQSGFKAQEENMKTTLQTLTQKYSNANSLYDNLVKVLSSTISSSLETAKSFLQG
binder,measurement,setting,value
B1,binding result,SipD^t D320R,binds
same,binding result,SipD^t V323K,binds
same,Kd,[1],108 ± 10 µM
same,binding result,SipD^t V157K,binds
same,binding result,SipD^t S313E,binds
same,Kd,SipD^t S148E,189 ± 20 µM
